Measurements taken from PMC3146575.

Columns and labels:
[1] = molecular target: T1, hOGG1 K249Q (catalytically inactive) (human, UniProt O15527 1-345, K249Q); assay: EMSA
[2] = molecular target: T1, hOGG1 K249Q (catalytically inactive); assay: EMSA; remark: listed apart in the source

T1 sequence (O15527 whole entry K249Q): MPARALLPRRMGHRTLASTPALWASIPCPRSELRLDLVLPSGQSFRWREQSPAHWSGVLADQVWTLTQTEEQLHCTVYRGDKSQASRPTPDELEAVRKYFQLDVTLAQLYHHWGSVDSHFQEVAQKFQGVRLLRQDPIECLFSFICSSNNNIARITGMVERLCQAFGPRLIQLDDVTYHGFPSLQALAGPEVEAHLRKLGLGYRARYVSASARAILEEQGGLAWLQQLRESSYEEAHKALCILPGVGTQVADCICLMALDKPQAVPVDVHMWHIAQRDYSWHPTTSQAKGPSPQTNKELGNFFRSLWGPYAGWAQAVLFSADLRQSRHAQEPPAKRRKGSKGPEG

| Binder | binding result [1] | Kd [2] |
| --- | --- | --- |
| CAGCAGCAGCAGCAGCAGCAGCAGCAGCAG (structured_DNA, 8-oxoG in 5th CAG repeat (G15)) [Loop-HP] | no binding |  |
| Stem-DUP (dsDNA, 8-oxoG in 2nd CAG repeat (G6 of strand 1)) DNA 1: CAGCAGCAGCAGCAGCAGCAGCAGCAGCAG DNA 2: CTGCTGCTGCTGCTGCTGCTGCTGCTGCTG |  | 21.7 ± 6.8 nM |
| CAGCAGCAGCAGCAGCAGCAGCAGCAGCAG (structured_DNA, 8-oxoG in 2nd CAG repeat (G6)) [Stem-HP] | no binding |  |
